Entries after “also recorded” stand apart in the source; their conditions may differ.
Tests used:
THP-1 cells = experiment: THP-1 cell adherence to immobilized Fg; type: cell-based
Protocol: Cell adherence assay using cell lines—A monocytic cell line THP-1 cell stably expressing αMβ2 was maintained in RPMI1640 supplemented with 10% fetal bovine serum, […] L-glutamine, 100 units/ml penicillin and 100 μg/ml streptomycin. Prior to use, cells were harvested by centrifuge, washed and suspended in RPMI 1640/1% human serum albumin. For cell adherence assays, 48-well plates were coated with 200 μl of Fibrinogen (10 μg/ml) overnight at 4° C. followed by 1 hour at 37° C. before blocking with 1% Polyvinylpyrrolidone (PVP 3600 kDa) for 45 minutes at 37° C. Subsequently, the cells were seeded 2×10^5/well in the presence or absence of Coa or Efb recombinant proteins or peptides and incubated at 37° C. for 25 minutes. Non-adherent cells were removed by washing gently three times with PBS/1% BSA. Adherent cells were quantitated with CyQuant kit according to the manufacturer's manual.

rEfb-N binding to Fg = target: T1, rEfb-N binding to Fg (Homo sapiens, UniProt P02671+P02675+P02679); experiment: Competition ELISA, peptide inhibition of rEfb-N (Efb 30-104) binding to Fg; details: increasing concentration of peptides; 2 nM GST fusion protein
T1 construct: full-length human Fibrinogen (diluted in PBS, Enzyme research); purchased Enzyme research; host or cells: Efb probe made in E. coli
T1 sequence (P02671 20-629 limits assumed): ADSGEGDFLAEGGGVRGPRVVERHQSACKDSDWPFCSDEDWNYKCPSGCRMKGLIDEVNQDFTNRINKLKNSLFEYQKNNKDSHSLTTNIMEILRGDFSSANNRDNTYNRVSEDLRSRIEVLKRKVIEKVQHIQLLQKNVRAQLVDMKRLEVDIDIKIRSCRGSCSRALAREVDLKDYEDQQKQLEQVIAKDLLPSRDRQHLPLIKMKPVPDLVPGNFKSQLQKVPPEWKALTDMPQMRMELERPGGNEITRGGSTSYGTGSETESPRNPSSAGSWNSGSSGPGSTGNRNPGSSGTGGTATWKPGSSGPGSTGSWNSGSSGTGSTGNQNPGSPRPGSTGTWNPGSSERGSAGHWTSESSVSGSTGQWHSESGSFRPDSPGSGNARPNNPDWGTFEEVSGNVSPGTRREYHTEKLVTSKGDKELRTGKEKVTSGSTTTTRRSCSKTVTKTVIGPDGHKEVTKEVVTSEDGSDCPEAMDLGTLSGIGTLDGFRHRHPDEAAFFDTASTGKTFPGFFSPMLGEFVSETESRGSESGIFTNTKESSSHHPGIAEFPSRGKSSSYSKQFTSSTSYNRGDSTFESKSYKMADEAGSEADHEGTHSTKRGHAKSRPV
T1 sequence (P02675 31-491): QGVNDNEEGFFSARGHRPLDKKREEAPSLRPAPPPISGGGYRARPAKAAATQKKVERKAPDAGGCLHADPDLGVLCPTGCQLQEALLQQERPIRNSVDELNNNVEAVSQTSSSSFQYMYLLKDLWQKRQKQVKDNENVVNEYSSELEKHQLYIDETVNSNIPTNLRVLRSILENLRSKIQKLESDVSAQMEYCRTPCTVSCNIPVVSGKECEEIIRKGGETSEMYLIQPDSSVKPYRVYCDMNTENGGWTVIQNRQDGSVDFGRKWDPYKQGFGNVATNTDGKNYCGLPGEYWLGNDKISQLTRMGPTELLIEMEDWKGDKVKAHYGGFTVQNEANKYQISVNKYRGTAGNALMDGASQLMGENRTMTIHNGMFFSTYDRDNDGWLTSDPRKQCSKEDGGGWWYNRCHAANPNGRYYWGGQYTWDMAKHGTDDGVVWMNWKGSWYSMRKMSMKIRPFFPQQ
T1 sequence (P02679 27-453): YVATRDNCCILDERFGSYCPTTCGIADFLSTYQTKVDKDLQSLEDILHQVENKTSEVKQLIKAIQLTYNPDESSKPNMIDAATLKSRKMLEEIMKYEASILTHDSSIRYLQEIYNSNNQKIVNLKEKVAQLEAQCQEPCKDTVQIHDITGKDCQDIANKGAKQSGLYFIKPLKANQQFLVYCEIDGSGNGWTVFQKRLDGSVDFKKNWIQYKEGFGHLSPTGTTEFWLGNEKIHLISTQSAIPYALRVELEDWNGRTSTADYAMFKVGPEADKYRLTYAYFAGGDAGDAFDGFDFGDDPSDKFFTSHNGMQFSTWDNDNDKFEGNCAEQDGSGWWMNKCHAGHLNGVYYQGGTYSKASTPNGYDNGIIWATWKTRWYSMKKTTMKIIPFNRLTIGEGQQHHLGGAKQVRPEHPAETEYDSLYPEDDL
Text: Coa-F contains an Efb like fibrinogen binding motif. FIG. 11A is an image of a ClustalW alignment of amino acid sequence from Efb-O (Efb 68-98) and Coa from Newman strain (col-Newman). Sequence similarity was identified at Coa 474-505. Bold letters denote conserved residues and underlined letters represent similar residues. FIGS. 11B and 11C show a comparison of amino acid sequence of Efb-O with Coa 474-505 (FIG. 11B) and Coa 506-532 (FIG. 11C). Large letters in Efb-O indicate the residues important for Fg binding. The red letters show the identical residues and the yellow letters indicate the similar residues. […] Increasing concentration of Coa peptides was incubated with 2 nM GST fusion proteins in Fg-coated microtiter wells. Closed square, sCoa-O; closed circle, sCoa-RI; closed triangle, sEfb-O.
A peptide was synthesized that corresponds to the Coa-O sequence (sCoa-O) and determined its Fg binding activity in a competition ELISA. Microtiter wells were coated with Fg and binding of the recombinant N-terminal segment of Efb (rEfb-N), that harbors the two Fg binding sites, was quantitated in the presence of increasing concentration of different synthetic peptides.
In the case of peptide inhibition assay, various concentration of Efb or Coa peptides were mixed with a fixed concentration of Coa-GST or Efb-GST fusion proteins (5-10 nM) in TBS and the bound GST fusion proteins were detected through incubation with HRP-conjugated rabbit anti-GST polyclonal antibodies (5000× dilution). All proteins were diluted in TBS containing 1% BSA and 0.05% TWEEN® 20 and the ELISA assays were carried out at room temperature.

[1] = test system: Coa-F, Coa-R0, Efb-N, Efb-O, Efb-A binding to Fg; experiment: Inhibition by FBE5 scFv-Fc of Coa and Efb fragment binding to immobilized human Fg; set-up: species or system Staphylococcus aureus; details: scFv-Fc 0.5, 5, 50 μg/ml; for inhibition of binding to Fg of all proteins tested: Coa-F, Coa-R0, Efb-N, Efb-O 10 nM, Efb-A 750 nM
Protocol: To assess the inhibitory activity of anti-Coa scFv-Fc antibodies, 0.5 μg/well of human Fg was immobilized at 4° C. overnight in 50 mM Carbonate Buffer, pH 9.6. Indicated amounts (50, 5, 0.5 μg/ml) of scFv-Fcs prepared in 2% BSA+1×TBS+0.05% TWEEN® 20 were pre-incubated for 1 hour with a constant concentration of Coa or Efb fragments also prepared in 2% BSA+1×TBS+0.05% TWEEN® 20 at room temperature, 250 rpm shaking. Specifically, Coa-F, Coa-R0, Efb-N and Efb-O were at a fixed concentration of 10 nM; whereas Efb-A was at 750 nM. Fg-binding activity of each protein alone was also checked (no mAb control—0 μg/ml). The Fg-coated plate was blocked with 2% BSA-TBST and washed with PBST. […] Residual bound Coa and Efb fragments were detected with HRP-conjugated (HorseRadish Peroxidase-conjugated) α-GST-tag antibody, except for Efb-N, where an HRP-conjugated α-HIS-tag was used (see FIG. 18). HRP-tagged antibodies were diluted in 2% BSA+1×TBS+0.05% TWEEN® 20 and used at 1:10000 dilution. […] HRP signal was developed using […]™ OPD tablets using manufacturer's guidelines. Binding of Coa and Efb fragments to Fg (no mAb control) was set to 100% and residual binding to Fg of Coa and Efb fragments in the presence of different concentrations of antibodies was calculated and represented.
To assess the inhibitory activity of anti-Coa scFv-Fc antibodies, 0.5 μg/well of human Fg was immobilized at 4° C. overnight in 50 mM Carbonate Buffer, pH 9.6. Indicated amounts (0, 0.5, 5, and 50 μg/ml) of scFv-Fcs were pre-incubated for 1 hour with a constant concentration of Coa or Efb fragments. Specifically, Coa-F, Coa-R0, Efb-N and Efb-O were at a fixed concentration of 10 nM; whereas Efb-A was at 750 nM. Fg-binding activity of each protein alone was also checked (no mAb control—0 μg/ml). The Fg-coated plate was blocked with 2% BSA-PBST and washed with PBST. The pre-incubated mixture of Coa/Efb and anti-Coa scFv-Fc was transferred on the Fg-coated plate. Residual bound Coa and Efb fragments were detected with HRP-conjugated (HorseRadish Peroxidase-conjugated) α-GST-tag antibody, except for Efb-N, where an HRP-conjugated α-HIS-tag was used. Binding of Coa and Efb fragments to Fg (no mAb control) was set to 100% and residual binding to Fg of Coa and Efb fragments in the presence of different concentrations of antibodies was calculated and represented.

sCoa-O: synthetic peptide corresponding to Coa-O, residues Coa 474-505 (KYVKYRDAGTGIREYNDGTFGYEARPRFNKPS)
inhibition of THP-1 adherence to immobilized Fg (THP-1 cells; M1/70 20 μg/ml, rEfb 0.2 μM, rCoa 0.5 μM, peptides 0.5 μM each): did not inhibit THP-1 adherence
reversal of inhibition of THP-1 adherence elicited by rEfb or rCoa (THP-1 cells; peptide 50 μM preincubated with rEfb (0.2 μM) or rCoa (0.2 μM)): reverses the inhibitory activities
inhibition of rEfb-N binding to Fg (rEfb-N binding to Fg): potent inhibitor; also recorded: effectively inhibited rEfb-N binding to Fg

B1: FBE5-F9: VH SEQ ID NO: 80, VL SEQ ID NO: 110 (antibody, V domains shown)
VH: QMQLVQSGGGVVQPGRSLRLSCAASGFTFSSYGMHWVRQAPGKGLEWVAVISYDGSNKYYADSVKGRFTISRDNSKNTLYLQMNSLRAEDTAVYYCAKEGDGDYGGVLDYWGQGTLVTVSS
VL: QSVLTQPPSVSAAPGQKVTISCSGSSSNIEKNYVSWYQQLPGTAPKLLIYDNNKRPSGIPDRFSGSKSGTSATLGITGLQTGDEADYYCGTWDSSLSAVVFGGGTKLTVL
inhibition of CoaF, CoaRO and EfbA binding to Fg [1]: clear inhibition
inhibition of EfbN and EfbO binding to Fg [1]: less efficient
inhibition of binding to Fg of all proteins tested [1]: dose dependent inhibition of all proteins tested

B2: FBE5-A12: VH SEQ ID NO: 73, VL SEQ ID NO: 103 (antibody, V domains shown)
VH: QVQLVESGGGVVQPGRSLRLSCAASGFTFSSYGMHWVRQAPGKGLEWVAVISYDGSNKYYADSVKGRFTISRDNSKNTLYLQMNSLRGEDTAVYYCAREGGWEPNGLDYWGQGTLVTVSS
VL: QAVLTQPPSASGTPGQRVTISCSGSDFNVGTNYVNWYQQLPGSAPKLLIYRNNQRPSGVPDRFSGSKSGTSATLGITGLQTGDEADYYCGTWDSSLSAEVFGGGTKLTVL
inhibition of CoaF, CoaRO and EfbA binding to Fg [1]: clear inhibition
inhibition of EfbN and EfbO binding to Fg [1]: less efficient
inhibition of binding to Fg of all proteins tested [1]: dose dependent inhibition of all proteins tested
